# Biological target: Human plasminogen (human)
# Experiment: ELISA; plasminogen immobilised on plate wells (1 ug in 100 uL PBS), blocked with 1% gelatin; AdcA 0-1 uM in PBS, 1.5 h at 37 C; bound AdcA detected with rabbit anti-AdcA serum; apparent KD from the fit to total binding saturation (GraphPad Prism); MntC run as control; EACA (0.1-10 mM) or NaCl (25-800 mM) added in further panels
substance,measurement,value
"Staphylococcus aureus zinc transport protein AdcA, recombinant full-length protein (natural protein)",Kd,45.1 nM
